Data from patent US20190338034A1 (Genentech, published 2019).

Tests used:
[1] = biological target: T1, atezolizumab (anti-PD-L1 antibody); test: immunofixation electrophoresis (Sebia IFE) gel shift, atezolizumab 1500 µg/mL in PBS pre-incubated 2 h with anti-ID antibody
T1 construct: Full IgG/Ig kappa antibody as used in the IFE gel shift assays; also called anti-PDL1 antibody atezolizumab

[2] = biological target: T2, anti-PDL1 Fab (Fab of anti-PD-L1 antibody atezolizumab); test: SPR (BIAcore), anti-idiotypic antibody captured by anti-mouse-Fc on CM5 chip, 500 nM anti-PDL1 Fab injected, 25 C, 1:1 Langmuir model
T2 construct: Fab format (Genentech); also called anti-PDL1 antibody Fab
Protocol: (§1) Binding affinities of anti-PDL1 anti-ID antibodies were measured by Surface Plasmon Resonance (SPR) using a BIAcore™-[…] instrument. Anti-idiotypic antibodies were captured by an anti-mouse-Fc antibody coated on CM5 biosensor chips to achieve approximately 200 response units (RU). For kinetics measurements, 500 nM of anti-PDL1 Fab or framework control Fab (YW167B.43) (Genentech, South San Francisco, Calif.) were injected in HBS-P+ buffer (0.1M HEPES, 1.5M NaCl, 0.5% Surfactant P20—GE Life Science) at 25° C. with a flow rate of […]. Association rates (kₐ) and dissociation rates (kd) were calculated using a simple one-to-one Langmuir binding model (BIAcore Evaluation Software version 3.2). The equilibrium dissociation constant (KD) was calculated as the ratio koff/kₒₙ. See also FIG. 3-5.

[3] = biological target: T2, anti-PDL1 Fab (Fab of anti-PD-L1 …); test: SPR (BIAcore), anti-ID captured by anti-mouse-Fc on a CM5 chip, anti-PDL1 antibody Fab injected at 500 nM, 25 °C, 1:1 binding model
Protocol: as §1

[4] = biological target: T3, YW167B.43 Negative Control; test: SPR (BIAcore), anti-ID captured, YW167B.43 negative control Fab injected at 500 nM, 25 °C. The software prints this 1:1 fit under a flat sensorgram with no response.
T3 construct: also called framework control Fab
Protocol: as §1

[5] = biological target: T3, YW167B.43 Negative Control; test: SPR (BIAcore), anti-ID captured, YW167B.43 negative control Fab injected at 500 nM, 25 °C. The software prints this 1:1 fit under a flat sensorgram with no positive response.
Protocol: as §1

binding result [1] | Kd [2] [nM] | koff [2] [s⁻¹] | kon [2] [M⁻¹ s⁻¹] | Kd [3] [nM] | koff [3] [s⁻¹] | kon [3] [M⁻¹ s⁻¹] | Kd [4] [nM] | koff [4] [s⁻¹] | kon [4] [M⁻¹ s⁻¹] | Kd [5] [nM] | koff [5] [s⁻¹] | kon [5] [M⁻¹ s⁻¹] | Binder
binds | 16.5 | 0.0045 | 279000 | 17.5 | 0.00648 | 370000 | 31.7 | 1.66 | 5.23e+07 | – | – | – | anti-idiotypic anti-PD-L1 antibody 105D11 (antibody, mouse IgG2a, kappa, V domains shown, Mouse monoclonal from a hybridoma) VH: EVQLVETGGGLVKPGGSLKLSCAASGFAFSSYDMSWVRQTPEKRLEWVAYISSGGGSTYYPDTVKGRFTISRDNAKNTLYLQMSSLKSEDTAMYYCARLVYYDYDDAMDYWGQGTSVTVSS VL: DIVLTQSPAIMSASPGEKVTITCSASSSVSYMHWFQQKPGTSPKLWIYSTSNLASGVPARFSGSGSGTSYSLTISRMEAEDAATYYCQQRSSYPPTFGGGTRLEIKR
binds | 2.31 | 0.000977 | 421000 | 2.64 | 0.000949 | 360000 | – | – | – | 127 | 0.000421 | 3310 | anti-idiotypic anti-PD-L1 antibody 48C1 (antibody, mouse IgG2a, kappa, V domains shown, Mouse monoclonal from a hybridoma; also called atezolizumab anti-idiotypic mouse mAB clone 48C1; atezolizumab anti-ID antibody 48C1) VH: EVQLVESGGGLVKPGGSLKLSCAASGFAFSSYDMSWVRQTPEKRLEWVAYISSGGGSTYYPDTVKGRFTISRDNAKNTLYLQMSSLKSEDTAMYYCARTIYYGYDDVMDYWGQGTSVTVSS VL: QIVLTQSPAIMSASPGEKVTITCSASSSVSYMHWFQQKPGTSPKLWIYSTSNLASGVPARFSGSGSGTSYSLTISRMEAEDAATYYCQQRSGYPPTFGGGTKLEIKR
binds | 90.7 | 0.00862 | 95000 | 89 | 0.00878 | 98600 | 0.222 | 0.000128 | 574000 | – | – | – | anti-idiotypic anti-PD-L1 antibody 43B5 (antibody, mouse IgG2a, kappa, V domains shown, Mouse monoclonal from a hybridoma) VH: EVQLQQSGPELVKPGASVKISCKASGYSFTDYIMLWVKQSHGKSLEWIGNINPYYGSTSYNLKFKGKATLTVDKSSSTAYMQLNSLTSEDSAVYYCARWGGNYEGWFAYWGQGTLVTVSA VL: DIKMTQSPSSMSVSLGDTVSITCHASQGISSNIGWLQQKPGKSFKGLIYHGTNLEDGVPSRFSGSGSGADYSLTISSLESEDFADYYCVQYAQFPLTFGAGTKLELKR
